In publication PMC10359615:

Molecular target: APE1Dead (catalytically dead APE1) D210N;E96Q (human) (UniProt P27695)
Experiment: EMSA
Conditions: EMSA: 50 mM Tris pH 8, 1 mM EDTA, 0.2 mg/ml BSA, 1 mM DTT, 5% sucrose, room temperature, 5 nM DNA, FRET: 20 mM HEPES pH 7.5, 150 mM KCl, 5 mM MgCl2, 5 mM …

Chain of APE1Dead (catalytically dead APE1) D210N;E96Q (human) (P27695 whole entry E96Q/D210N): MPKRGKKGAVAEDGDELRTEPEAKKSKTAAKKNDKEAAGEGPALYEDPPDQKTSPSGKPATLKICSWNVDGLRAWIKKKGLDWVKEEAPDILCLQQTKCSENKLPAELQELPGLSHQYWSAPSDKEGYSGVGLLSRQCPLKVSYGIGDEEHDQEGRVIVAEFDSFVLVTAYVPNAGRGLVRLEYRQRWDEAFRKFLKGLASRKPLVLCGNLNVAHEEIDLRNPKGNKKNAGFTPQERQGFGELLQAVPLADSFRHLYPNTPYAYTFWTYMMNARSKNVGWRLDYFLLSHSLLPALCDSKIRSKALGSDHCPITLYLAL

“CTCAACACTTAACTA / TGGATGATGACTCTTCTGCGTTCGCTGATGCGCCGACGGTAGTTAAGTGTTGAG [Rec-PTJ, abasic site 7 nt from junction (FAM)]” showed a Kd (THF abasic analog 7 nt from the 3' ds-ss junction) of 0.7 nM.
For “CTCAACACTTAACTACCGTCG / TGGATGATGACTCTTCTGCGTTCGCTGATGCGCCGACGGTAGTTAAGTGTTGAG [PTJ, abasic site at junction (FAM)]”, the Kd (THF abasic analog directly next to the 3' ds-ss junction) was 1.2 nM.
In the case of “GCTGATGCGCNCGACGGATCC [abasic ssDNA 21-mer]”, the Kd (1 mM EDTA, Kd,app, N11 = tetrahydrofuran abasic analog (THF)) is reported as 22 nM.
Work on abasic dsDNA yielded a Kd (1 mM EDTA, Kd,app, THF abasic analog) of 0.4 nM.
